Assay results: article PMC12111831, “Phase-Separated Multienzyme Condensates for Efficient Synthesis of Imines from Carboxylic Acids with Enhanced Dual-Cofactor Recycling” (International Journal of Molecular Sciences, 2025)

Experiments:
O=C(O)c1ccccc1 = experiment: purified protein; conditions: ATP, NADPH, Mg2+, 30 °C
CCCC(=O)O = experiment: purified protein, by the assay type; conditions: pH 7.5; 30.0 °C
Method: (§1) Varying substrate concentrations were dissolved in 250 mM NaOH. Substrate-free controls were included for baseline correction. Kinetic parameters were derived via the nonlinear regression of Michaelis–Menten plots using OriginPro 2021 SR2 (64-bit) Build 9.8.0.240.
COc1ccc(C(=O)O)cc1 = experiment: purified protein, by the assay type; conditions: pH 7.5; 30.0 °C
Method: as §1
Cc1ccc(C(=O)O)cc1 = experiment: purified protein, by the assay type; conditions: pH 7.5; 30.0 °C
Method: as §1
O=C(O)CCc1ccccc1 = experiment: purified protein, by the assay type; conditions: pH 7.5; 30.0 °C
Method: as §1
O=C(O)c1ccc2c(c1)OCO2 = experiment: purified protein, by the assay type; conditions: pH 7.5; 30.0 °C
Method: as §1

AspRedAm = biological target: T1, AspRedAm (Aspergillus oryzae, UniProt Q2TW47); experiment: NADPH absorbance at […] nm, specific activity; format: biochemical; conditions: 10 mM aldehyde, 20 mM amine, 0.2 mM NADPH, MOPS pH 7.5, 30 °C
T1 sequence (Q2TW47 1-295): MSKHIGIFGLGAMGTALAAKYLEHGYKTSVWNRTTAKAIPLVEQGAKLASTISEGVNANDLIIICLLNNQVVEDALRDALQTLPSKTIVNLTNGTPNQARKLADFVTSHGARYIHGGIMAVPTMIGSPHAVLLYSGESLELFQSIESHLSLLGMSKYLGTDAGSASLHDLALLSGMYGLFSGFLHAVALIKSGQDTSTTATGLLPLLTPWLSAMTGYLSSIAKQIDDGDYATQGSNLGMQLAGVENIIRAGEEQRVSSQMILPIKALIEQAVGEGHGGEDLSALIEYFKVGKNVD

NiCAR (Nocardia iowensis)
Km (O=C(O)c1ccccc1): 450 ± 30 µM
kcat (O=C(O)c1ccccc1): 3.9227 ± 0.0378 s⁻¹
Km (CCCC(=O)O): 101930 ± 21090 µM
kcat (CCCC(=O)O): 5.56 ± 1.05 s⁻¹
Km (COc1ccc(C(=O)O)cc1): 1580 ± 140 µM
kcat (COc1ccc(C(=O)O)cc1): 1.89 ± 0.0387 s⁻¹
Km (Cc1ccc(C(=O)O)cc1): 1850 ± 160 µM
kcat (Cc1ccc(C(=O)O)cc1): 3.17 ± 0.0792 s⁻¹
Km (O=C(O)CCc1ccccc1): 1040 ± 90 µM
kcat (O=C(O)CCc1ccccc1): 3.15 ± 0.0588 s⁻¹
Km (O=C(O)c1ccc2c(c1)OCO2): 4490 ± 620 µM
kcat (O=C(O)c1ccc2c(c1)OCO2): 1.58 ± 0.0875 s⁻¹

NC1CC1 [cyclopropylamine]
NADPH absorbance at 340 nm, specific activity (AspRedAm; not with aldehyde 2h): both enzymes exhibited catalytic activity toward all tested substrates, except for substrate 2h with cyclopropylamine

C#CCN [propargylamine]
NADPH absorbance at 340 nm, specific activity (AspRedAm): both enzymes exhibited catalytic activity toward all tested substrates, except for substrate 2h with cyclopropylamine
